Laboratory results taken from the supplement of paper PMC7125110.
Variants at the floor of the assay were thinned out.

B1: glmS ribozyme (parent)
chain: AUAAAAGCGCCAGAACUACAGAAAUGUAGUUGACGAGGAGGAGGUUUAUCGAAUUUUCGGCGGAUGCCUCCAAA

How the values were obtained:
Conditions in all cases: with glucosamine-6-phosphate
glucosamine-6-phosphate [1] = variants of: B1; experiment: self-cleavage kobs at 40 uM GlcN6P; higher = faster cleavage; RNA array
Method in brief: (§1)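 Glucosamine-6-phosphate (40 μM to 10 mM) in HEPES/KCl/Mg(OAc)2 buffer was flowed over sequenced MiSeq chips, and tiles were imaged over ~14 h. Barcoded ribozyme variants there had been transcribed in situ by E. coli RNA polymerase and were tracked through a hybridised Cy3 probe at 37 °C. One- or two-exponential decay fits to per-tile medians, normalised to baseline and to non-cleaving reference variants, gave kobs. kcat and KM came from weighted Michaelis–Menten fits across concentrations.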

glucosamine-6-phosphate [2] = variants of: B1; experiment: self-cleavage kobs at 640 uM GlcN6P; higher = faster cleavage; RNA array
Method in brief: as §1

glucosamine-6-phosphate [3] = variants of: B1; experiment: self-cleavage kobs at 10000 uM GlcN6P; higher = faster cleavage; RNA array
Method in brief: as §1

glucosamine-6-phosphate [4] = variants of: B1; experiment: self-cleavage kobs at 160 uM GlcN6P; higher = faster cleavage; RNA array
Method in brief: as §1

glucosamine-6-phosphate [5] = variants of: B1; experiment: self-cleavage kobs at 2500 uM GlcN6P; higher = faster cleavage; RNA array
Method in brief: as §1

G7C U65A
< 1e-05 s⁻¹: self-cleavage kobs at 40 uM GlcN6P (glucosamine-6-phosphate [1]) | self-cleavage kobs at 640 uM GlcN6P (glucosamine-6-phosphate [2]) | self-cleavage kobs at 10000 uM GlcN6P (glucosamine-6-phosphate [3])

G9A A64C
< 1e-05 s⁻¹: self-cleavage kobs at 40 uM GlcN6P (glucosamine-6-phosphate [1]) | self-cleavage kobs at 160 uM GlcN6P (glucosamine-6-phosphate [4]) | self-cleavage kobs at 640 uM GlcN6P (glucosamine-6-phosphate [2]) | self-cleavage kobs at 2500 uM GlcN6P (glucosamine-6-phosphate [5])

G7U U46G
< 1e-05 s⁻¹: self-cleavage kobs at 40 uM GlcN6P (glucosamine-6-phosphate [1]) | self-cleavage kobs at 160 uM GlcN6P (glucosamine-6-phosphate [4]) | self-cleavage kobs at 640 uM GlcN6P (glucosamine-6-phosphate [2]) | self-cleavage kobs at 2500 uM GlcN6P (glucosamine-6-phosphate [5]) | self-cleavage kobs at 10000 uM GlcN6P (glucosamine-6-phosphate [3])

G7U G43U A52G C68A C70U
< 1e-05 s⁻¹: self-cleavage kobs at 40 uM GlcN6P (glucosamine-6-phosphate [1])

G7U G40C G43C
< 1e-05 s⁻¹: self-cleavage kobs at 40 uM GlcN6P (glucosamine-6-phosphate [1]) | self-cleavage kobs at 10000 uM GlcN6P (glucosamine-6-phosphate [3])

C8G G62A
< 1e-05 s⁻¹: self-cleavage kobs at 40 uM GlcN6P (glucosamine-6-phosphate [1]) | self-cleavage kobs at 2500 uM GlcN6P (glucosamine-6-phosphate [5])

C8G G62U
< 1e-05 s⁻¹: self-cleavage kobs at 40 uM GlcN6P (glucosamine-6-phosphate [1]) | self-cleavage kobs at 160 uM GlcN6P (glucosamine-6-phosphate [4]) | self-cleavage kobs at 640 uM GlcN6P (glucosamine-6-phosphate [2]) | self-cleavage kobs at 2500 uM GlcN6P (glucosamine-6-phosphate [5])

G7C G59A
< 1e-05 s⁻¹: self-cleavage kobs at 40 uM GlcN6P (glucosamine-6-phosphate [1]) | self-cleavage kobs at 160 uM GlcN6P (glucosamine-6-phosphate [4]) | self-cleavage kobs at 640 uM GlcN6P (glucosamine-6-phosphate [2]) | self-cleavage kobs at 10000 uM GlcN6P (glucosamine-6-phosphate [3])

G7U G35C U57A
< 1e-05 s⁻¹: self-cleavage kobs at 40 uM GlcN6P (glucosamine-6-phosphate [1]) | self-cleavage kobs at 2500 uM GlcN6P (glucosamine-6-phosphate [5])

C8A C10A
< 1e-05 s⁻¹: self-cleavage kobs at 40 uM GlcN6P (glucosamine-6-phosphate [1]) | self-cleavage kobs at 160 uM GlcN6P (glucosamine-6-phosphate [4]) | self-cleavage kobs at 640 uM GlcN6P (glucosamine-6-phosphate [2])

C8G A33C C67G
< 1e-05 s⁻¹: self-cleavage kobs at 40 uM GlcN6P (glucosamine-6-phosphate [1]) | self-cleavage kobs at 640 uM GlcN6P (glucosamine-6-phosphate [2])

G7U A53U U57A
< 1e-05 s⁻¹: self-cleavage kobs at 40 uM GlcN6P (glucosamine-6-phosphate [1])

G9A A12U C61A
< 1e-05 s⁻¹: self-cleavage kobs at 40 uM GlcN6P (glucosamine-6-phosphate [1])

C8U A14G C16U
< 1e-05 s⁻¹: self-cleavage kobs at 40 uM GlcN6P (glucosamine-6-phosphate [1]) | self-cleavage kobs at 10000 uM GlcN6P (glucosamine-6-phosphate [3])

C8G A15G A39G C67G
< 1e-05 s⁻¹: self-cleavage kobs at 40 uM GlcN6P (glucosamine-6-phosphate [1])

G7U A14C U56G
< 1e-05 s⁻¹: self-cleavage kobs at 40 uM GlcN6P (glucosamine-6-phosphate [1]) | self-cleavage kobs at 160 uM GlcN6P (glucosamine-6-phosphate [4]) | self-cleavage kobs at 640 uM GlcN6P (glucosamine-6-phosphate [2]) | self-cleavage kobs at 2500 uM GlcN6P (glucosamine-6-phosphate [5]) | self-cleavage kobs at 10000 uM GlcN6P (glucosamine-6-phosphate [3])

G7U G41U
< 1e-05 s⁻¹: self-cleavage kobs at 40 uM GlcN6P (glucosamine-6-phosphate [1]) | self-cleavage kobs at 160 uM GlcN6P (glucosamine-6-phosphate [4]) | self-cleavage kobs at 640 uM GlcN6P (glucosamine-6-phosphate [2]) | self-cleavage kobs at 2500 uM GlcN6P (glucosamine-6-phosphate [5]) | self-cleavage kobs at 10000 uM GlcN6P (glucosamine-6-phosphate [3])

C8A U30G U31C
< 1e-05 s⁻¹: self-cleavage kobs at 40 uM GlcN6P (glucosamine-6-phosphate [1]) | self-cleavage kobs at 2500 uM GlcN6P (glucosamine-6-phosphate [5]) | self-cleavage kobs at 10000 uM GlcN6P (glucosamine-6-phosphate [3])

C8A A48U
< 1e-05 s⁻¹: self-cleavage kobs at 40 uM GlcN6P (glucosamine-6-phosphate [1]) | self-cleavage kobs at 640 uM GlcN6P (glucosamine-6-phosphate [2]) | self-cleavage kobs at 2500 uM GlcN6P (glucosamine-6-phosphate [5])

C8G U31G
< 1e-05 s⁻¹: self-cleavage kobs at 40 uM GlcN6P (glucosamine-6-phosphate [1]) | self-cleavage kobs at 160 uM GlcN6P (glucosamine-6-phosphate [4]) | self-cleavage kobs at 640 uM GlcN6P (glucosamine-6-phosphate [2]) | self-cleavage kobs at 2500 uM GlcN6P (glucosamine-6-phosphate [5])

C8G A39U A53C C58U
< 1e-05 s⁻¹: self-cleavage kobs at 40 uM GlcN6P (glucosamine-6-phosphate [1])

C8G A39C U55G G59U
< 1e-05 s⁻¹: self-cleavage kobs at 40 uM GlcN6P (glucosamine-6-phosphate [1]) | self-cleavage kobs at 10000 uM GlcN6P (glucosamine-6-phosphate [3])

G9A C67U
< 1e-05 s⁻¹: self-cleavage kobs at 40 uM GlcN6P (glucosamine-6-phosphate [1]) | self-cleavage kobs at 160 uM GlcN6P (glucosamine-6-phosphate [4]) | self-cleavage kobs at 2500 uM GlcN6P (glucosamine-6-phosphate [5])

C8A G35C
< 1e-05 s⁻¹: self-cleavage kobs at 40 uM GlcN6P (glucosamine-6-phosphate [1]) | self-cleavage kobs at 160 uM GlcN6P (glucosamine-6-phosphate [4]) | self-cleavage kobs at 640 uM GlcN6P (glucosamine-6-phosphate [2]) | self-cleavage kobs at 2500 uM GlcN6P (glucosamine-6-phosphate [5]) | self-cleavage kobs at 10000 uM GlcN6P (glucosamine-6-phosphate [3])

C8U G32C G60U
< 1e-05 s⁻¹: self-cleavage kobs at 40 uM GlcN6P (glucosamine-6-phosphate [1]) | self-cleavage kobs at 160 uM GlcN6P (glucosamine-6-phosphate [4]) | self-cleavage kobs at 640 uM GlcN6P (glucosamine-6-phosphate [2]) | self-cleavage kobs at 2500 uM GlcN6P (glucosamine-6-phosphate [5]) | self-cleavage kobs at 10000 uM GlcN6P (glucosamine-6-phosphate [3])

C8A C50A
< 1e-05 s⁻¹: self-cleavage kobs at 40 uM GlcN6P (glucosamine-6-phosphate [1]) | self-cleavage kobs at 160 uM GlcN6P (glucosamine-6-phosphate [4]) | self-cleavage kobs at 640 uM GlcN6P (glucosamine-6-phosphate [2]) | self-cleavage kobs at 2500 uM GlcN6P (glucosamine-6-phosphate [5]) | self-cleavage kobs at 10000 uM GlcN6P (glucosamine-6-phosphate [3])

G7U G38U C71A
< 1e-05 s⁻¹: self-cleavage kobs at 40 uM GlcN6P (glucosamine-6-phosphate [1]) | self-cleavage kobs at 10000 uM GlcN6P (glucosamine-6-phosphate [3])

C8G U56A
< 1e-05 s⁻¹: self-cleavage kobs at 40 uM GlcN6P (glucosamine-6-phosphate [1]) | self-cleavage kobs at 640 uM GlcN6P (glucosamine-6-phosphate [2]) | self-cleavage kobs at 2500 uM GlcN6P (glucosamine-6-phosphate [5])

G9A C11A G35C A42G
< 1e-05 s⁻¹: self-cleavage kobs at 40 uM GlcN6P (glucosamine-6-phosphate [1]) | self-cleavage kobs at 10000 uM GlcN6P (glucosamine-6-phosphate [3])

C8G A12U A33U G60C
< 1e-05 s⁻¹: self-cleavage kobs at 40 uM GlcN6P (glucosamine-6-phosphate [1]) | self-cleavage kobs at 10000 uM GlcN6P (glucosamine-6-phosphate [3])

C8G C58A
< 1e-05 s⁻¹: self-cleavage kobs at 40 uM GlcN6P (glucosamine-6-phosphate [1]) | self-cleavage kobs at 160 uM GlcN6P (glucosamine-6-phosphate [4]) | self-cleavage kobs at 640 uM GlcN6P (glucosamine-6-phosphate [2]) | self-cleavage kobs at 2500 uM GlcN6P (glucosamine-6-phosphate [5]) | self-cleavage kobs at 10000 uM GlcN6P (glucosamine-6-phosphate [3])

G7U G60C
< 1e-05 s⁻¹: self-cleavage kobs at 40 uM GlcN6P (glucosamine-6-phosphate [1]) | self-cleavage kobs at 160 uM GlcN6P (glucosamine-6-phosphate [4]) | self-cleavage kobs at 640 uM GlcN6P (glucosamine-6-phosphate [2]) | self-cleavage kobs at 10000 uM GlcN6P (glucosamine-6-phosphate [3])

C8G A39U C58U
< 1e-05 s⁻¹: self-cleavage kobs at 40 uM GlcN6P (glucosamine-6-phosphate [1]) | self-cleavage kobs at 160 uM GlcN6P (glucosamine-6-phosphate [4]) | self-cleavage kobs at 640 uM GlcN6P (glucosamine-6-phosphate [2]) | self-cleavage kobs at 10000 uM GlcN6P (glucosamine-6-phosphate [3])

C8A G62A
< 1e-05 s⁻¹: self-cleavage kobs at 40 uM GlcN6P (glucosamine-6-phosphate [1]) | self-cleavage kobs at 160 uM GlcN6P (glucosamine-6-phosphate [4]) | self-cleavage kobs at 640 uM GlcN6P (glucosamine-6-phosphate [2]) | self-cleavage kobs at 10000 uM GlcN6P (glucosamine-6-phosphate [3])

C8A C71A
< 1e-05 s⁻¹: self-cleavage kobs at 40 uM GlcN6P (glucosamine-6-phosphate [1]) | self-cleavage kobs at 160 uM GlcN6P (glucosamine-6-phosphate [4]) | self-cleavage kobs at 640 uM GlcN6P (glucosamine-6-phosphate [2]) | self-cleavage kobs at 2500 uM GlcN6P (glucosamine-6-phosphate [5]) | self-cleavage kobs at 10000 uM GlcN6P (glucosamine-6-phosphate [3])

G7U U45C U56A
< 1e-05 s⁻¹: self-cleavage kobs at 40 uM GlcN6P (glucosamine-6-phosphate [1]) | self-cleavage kobs at 640 uM GlcN6P (glucosamine-6-phosphate [2]) | self-cleavage kobs at 2500 uM GlcN6P (glucosamine-6-phosphate [5])

G7U G44U
< 1e-05 s⁻¹: self-cleavage kobs at 40 uM GlcN6P (glucosamine-6-phosphate [1]) | self-cleavage kobs at 160 uM GlcN6P (glucosamine-6-phosphate [4]) | self-cleavage kobs at 640 uM GlcN6P (glucosamine-6-phosphate [2]) | self-cleavage kobs at 10000 uM GlcN6P (glucosamine-6-phosphate [3])

C8A G29C
< 1e-05 s⁻¹: self-cleavage kobs at 40 uM GlcN6P (glucosamine-6-phosphate [1]) | self-cleavage kobs at 160 uM GlcN6P (glucosamine-6-phosphate [4]) | self-cleavage kobs at 640 uM GlcN6P (glucosamine-6-phosphate [2]) | self-cleavage kobs at 2500 uM GlcN6P (glucosamine-6-phosphate [5]) | self-cleavage kobs at 10000 uM GlcN6P (glucosamine-6-phosphate [3])

G9A A42C C71A
< 1e-05 s⁻¹: self-cleavage kobs at 40 uM GlcN6P (glucosamine-6-phosphate [1]) | self-cleavage kobs at 160 uM GlcN6P (glucosamine-6-phosphate [4]) | self-cleavage kobs at 640 uM GlcN6P (glucosamine-6-phosphate [2]) | self-cleavage kobs at 2500 uM GlcN6P (glucosamine-6-phosphate [5]) | self-cleavage kobs at 10000 uM GlcN6P (glucosamine-6-phosphate [3])

G7C U30G
< 1e-05 s⁻¹: self-cleavage kobs at 40 uM GlcN6P (glucosamine-6-phosphate [1]) | self-cleavage kobs at 160 uM GlcN6P (glucosamine-6-phosphate [4]) | self-cleavage kobs at 640 uM GlcN6P (glucosamine-6-phosphate [2]) | self-cleavage kobs at 2500 uM GlcN6P (glucosamine-6-phosphate [5]) | self-cleavage kobs at 10000 uM GlcN6P (glucosamine-6-phosphate [3])
